Reference: the RNAGym collection of RNA variant scans (doi:10.7554/elife.80360)

B1: HDV Ribozyme (parent)
chain: GGCCGGCAUGGUCCCAGCCUCCUCGCUGGCGCCGGCUGGGCAACAUUCCGAGGGGACCGUCCCCUCGGUAAUGGCGAAUGGGACCCA

Variants of: B1
Experiment: self-cleavage, relative activity (ratio to wild type); higher = more cleavage; co-transcriptional

First: U65A G73U
Second: U65C U79C
The self-cleavage of the first is lower: 0.217 for the first, 0.415 for the second.

First: C64U U79C
Second: C64U U79G
The self-cleavage of the first is lower: 0.306 for the first, 0.847 for the second.

Going from C66G C86A to C66G C86U, the self-cleavage falls from 0.984 to 0.931.

Compared with C66G C86G, C64A G73U is lower in self-cleavage: 1.07 for the first, 0.332 for the second.

Going from C64A G73A to C64A U69A, the self-cleavage rises from 0.385 to 1.06.

Compared with C64A U69G, U65A G67A is lower in self-cleavage: 1.15 for the first, 0.98 for the second.

First: C64U A87C
Second: C63U G67C
The self-cleavage of the first is higher: 0.971 for the first, 0.96 for the second.

Compared with C63U G67A, C63U G67U is higher in self-cleavage: 0.933 for the first, 1.02 for the second.

Compared with C66U A77C, C64U A70U is higher in self-cleavage: 0.34 for the first, 1.01 for the second.

First: C64A C75A
Second: C64A C75G
The self-cleavage of the first is higher: 0.237 for the first, 0.18 for the second.

Going from C64A C75U to C64U G80C, the self-cleavage falls from 0.332 to 0.158.

Compared with C64G U72A, C64G C84G is higher in self-cleavage: 0.614 for the first, 0.76 for the second.

Compared with C66U A83G, U65A C66A is higher in self-cleavage: 0.643 for the first, 1.08 for the second.

Compared with C63G C84G, C66A C85G is higher in self-cleavage: 0.306 for the first, 0.918 for the second.

Compared with C63A A78C, U65C A87C is higher in self-cleavage: 0.108 for the first, 1.09 for the second.

Compared with C66U A87C, C66U A87G is higher in self-cleavage: 0.875 for the first, 0.999 for the second.

Compared with C64G G82C, C64G G82U is higher in self-cleavage: 0.0811 for the first, 0.228 for the second.

Compared with C64A G82C, C66G U79C is higher in self-cleavage: 0.199 for the first, 0.521 for the second.

Compared with C64G G67A, C66U G74U is higher in self-cleavage: 0.356 for the first, 0.475 for the second.

Compared with C66G A71G, C66G A71C is lower in self-cleavage: 1.05 for the first, 1.03 for the second.

First: C66G A71U
Second: U65A A83U
The self-cleavage of the first is higher: 1.01 for the first, 0.539 for the second.

Going from U65C C86G to U65C G68C, the self-cleavage falls from 1.18 to 0.883.

Going from U65C G74A to U65A A78C, the self-cleavage falls from 0.456 to 0.259.

Compared with C63U G68A, C66A A87C is higher in self-cleavage: 0.973 for the first, 1 for the second.

First: U65G A71U
Second: C66A U79C
The self-cleavage of the first is higher: 0.863 for the first, 0.582 for the second.

Going from C66G A77G to C64G G68C, the self-cleavage falls from 0.612 to 0.264.

Compared with C62U G81A, C62U A83U is lower in self-cleavage: 0.531 for the first, 0.318 for the second.

Going from C63G A70U to C63G A70G, the self-cleavage rises from 0.564 to 0.76.

Compared with C66U A71G, U65C G80C is lower in self-cleavage: 0.909 for the first, 0.249 for the second.

Going from C63U U69C to C64U C66U, the self-cleavage rises from 0.964 to 1.01.

Going from C64U C66A to U65G A87C, the self-cleavage falls from 0.95 to 0.859.

First: U65G A87G
Second: C63U C84A
The self-cleavage of the first is higher: 0.973 for the first, 0.76 for the second.

Going from C63G G73U to U65G G82U, the self-cleavage rises from 0.397 to 0.453.

Compared with C63U C86G, C64U G73A is lower in self-cleavage: 1.11 for the first, 0.81 for the second.

Going from C63G U79C to C63G U79A, the self-cleavage rises from 0.697 to 0.856.

Compared with C62U G74A, C62U G74C is lower in self-cleavage: 0.383 for the first, 0.234 for the second.

Compared with U65G C84A, C63U A78G is lower in self-cleavage: 1.04 for the first, 0.755 for the second.

Compared with C63U A78U, C63U A78C is lower in self-cleavage: 0.287 for the first, 0.237 for the second.

Compared with C66G A83G, C66G A83U is lower in self-cleavage: 0.72 for the first, 0.415 for the second.

Compared with C63G A78G, U65C A78C is lower in self-cleavage: 0.54 for the first, 0.293 for the second.

Compared with C63U A87U, C63G A83C is lower in self-cleavage: 1.01 for the first, 0.249 for the second.

Compared with C63G A83U, C63G C66U is higher in self-cleavage: 0.271 for the first, 0.386 for the second.

First: U65G C75G
Second: U65G C75A
The self-cleavage of the first is higher: 0.323 for the first, 0.259 for the second.

Going from C66U A78C to C66U A78G, the self-cleavage rises from 0.178 to 0.69.

Going from U65G C66G to C63U C66A, the self-cleavage rises from 0.812 to 0.978.

First: C66U
Second: C66A
The self-cleavage of the first is higher: 1.01 for the first, 0.975 for the second.

Going from C66G to C63U G73U, the self-cleavage falls from 0.973 to 0.409.

Compared with U65G G76A, U65G A70U is lower in self-cleavage: 0.95 for the first, 0.892 for the second.

Going from U65G A70G to U65G U79C, the self-cleavage falls from 1.05 to 0.19.

First: U65G U69C
Second: C63G U72G
The self-cleavage of the first is higher: 0.877 for the first, 0.192 for the second.

Going from C64G A71U to C64A C66G, the self-cleavage falls from 0.863 to 0.489.

First: C64A C66A
Second: U65G G67U
The self-cleavage of the first is higher: 0.573 for the first, 0.569 for the second.

First: U65G G67C
Second: C63A G80C
The self-cleavage of the first is lower: 0.156 for the first, 0.332 for the second.

Going from C64A C85G to U65C A77U, the self-cleavage rises from 0.594 to 0.806.

First: C66G G73C
Second: C66G C84U
The self-cleavage of the first is lower: 0.46 for the first, 0.545 for the second.

Going from C66G C84G to U65C A71C, the self-cleavage falls from 0.745 to 0.703.

First: C62U U72C
Second: C64U A77G
The self-cleavage of the first is lower: 0.636 for the first, 1.01 for the second.

Compared with C64A U65C, U65C G73A is lower in self-cleavage: 0.831 for the first, 0.746 for the second.

Going from U65C G73U to C63G C85A, the self-cleavage rises from 0.554 to 0.95.

Going from C63A A83U to C63A C85G, the self-cleavage rises from 0.77 to 0.849.

First: U65A A87U
Second: U65A G68A
The self-cleavage of the first is higher: 0.96 for the first, 0.641 for the second.

Compared with C66U C84G, U65G G80C is lower in self-cleavage: 0.57 for the first, 0.185 for the second.

Compared with U65G A77U, C64U G68U is higher in self-cleavage: 0.554 for the first, 0.607 for the second.

Going from U65A G76U to C64G U69C, the self-cleavage rises from 1.04 to 1.29.

First: C64G U69G
Second: C66G G68C
The self-cleavage of the first is higher: 0.91 for the first, 0.554 for the second.

Compared with C63G U69A, C63U C75U is lower in self-cleavage: 1.16 for the first, 0.324 for the second.

Compared with C63U G76U, C64G A83C is lower in self-cleavage: 1.15 for the first, 0.373 for the second.

Going from C62U C75U to C63G G74C, the self-cleavage falls from 0.173 to 0.128.

First: C66G G76A
Second: U65A A70U
The self-cleavage of the first is lower: 1.02 for the first, 1.14 for the second.

Going from U65A C85A to U65A C85U, the self-cleavage falls from 0.858 to 0.791.

First: C66G G81U
Second: C66G G81A
The self-cleavage of the first is lower: 0.214 for the first, 0.408 for the second.

Compared with C66G G81C, C62U U69G is higher in self-cleavage: 0.193 for the first, 1.07 for the second.

First: C64A C86A
Second: U65A G80A
The self-cleavage of the first is higher: 0.942 for the first, 0.201 for the second.

Compared with C63U A70G, C66U G67A is lower in self-cleavage: 1.02 for the first, 0.786 for the second.

Going from C64A A87U to C64G C86A, the self-cleavage rises from 0.71 to 0.946.

First: C64G C75G
Second: C66G A87G
The self-cleavage of the first is lower: 0 for the first, 1.06 for the second.

Going from C66G A87U to C66G A87C, the self-cleavage rises from 0.853 to 0.857.

First: C63A G73A
Second: C63A G73C
The self-cleavage of the first is higher: 0.681 for the first, 0.332 for the second.

Going from C63A G73U to C63G A71G, the self-cleavage rises from 0.3 to 0.656.

Going from C63G A71U to U65G A78C, the self-cleavage falls from 0.712 to 0.119.

Going from U65G A78G to C66G G67A, the self-cleavage falls from 0.957 to 0.706.

First: C63G C64U
Second: C63G C64A
The self-cleavage of the first is lower: 0.753 for the first, 0.862 for the second.

First: C63G U65A
Second: C64G G76C
The self-cleavage of the first is lower: 0.415 for the first, 0.702 for the second.

Work on C64G G76U yielded a self-cleavage of 1.05.
